Holding throughout (type): cell-based
The test system of data set [1] is cancer cells. The data set is described as follows: GCV mediated cancer kill following retroviral transduction delivery. From the text:
To our knowledge, this is the most GCV selective HSV-TK synthetic gene product for GCV activation which has no Thymidine activity (HAT assay) ever evaluated biologically.

Data set [2] has as its system C6 rat glioma. Description: In vitro bystander assay. Conditions: 0-100% HSV-TK-m2 cells, 5-20 μM GCV. The protocol: (§1) Cells are seeded at 1-4×10^4 cells/well in a 96 well plate, in triplicate, with mixtures of TK cells ranging from 0-100%. The next day GCV is added at doses ranging from 10 μm to 1 mM. Cells plates at confluency are split 1:30 into 3 plates, 20-24 hours after GCV addition. 5 days later, cells are analyzed by Presto Blue for live cell metabolism and read on a microplate reader. Cell plates at sub-confluency are analyzed 3 days after GCV treatment by Presto Blue.
(§2) A375 human melanoma and C6 rat glioma stable pure population cell lines were established containing the A168H mutated HSV-TK-m2 gene. The bystander assays were conducted by plating the cancer cells with mixtures of the parental non-HSV-TK-m2 cells with the corresponding HSV-TK-m2 cell line ranging from 0-100% HSV-TK-m2. The mixtures of cancer cells were subsequently exposed to 5-20 μM GCV and cell kill is plotted in the figures below.

Data set [3] has as its system A375 human melanoma. The data set is described as follows: In vitro bystander assay. The following applies: 0-100% HSV-TK-m2 cells, 5-20 μM GCV. The protocol:
as §1, §2

B1: A168H and mutated at amino acids 159-161 from LIF to IFL: mHSV-TK CO MB-IFL A168H(IFL . . . AHL) (nucleic acid)
chain: GTCAGCGGCCGCACCGGTACGCGTCCACCATGGCCAGCTACCCCGGCCACCAGCACGCCAGCGCCTTCGACCAGGCCGCCCGCAGCCGCGGCCACAGCAACGGCAGCACCGCACTGCGGCCACGGCGCCAGCAGGAGGCCACCGAGGTGCGCCCCGAGCAGAAGATGCCCACCCTGCTGCGCGTGTACATCGACGGACCACACGGCATGGGCAAGACCACCACCACCCAGCTGCTGGTGGCCCTGGGCAGCCGCGACGACATCGTGTACGTGCCCGAGCCCATGACCTACTGGCGCGTGCTGGGCGCCAGCGAGACCATCGCCAACATCTACACCACCCAGCACCGCCTGGACCAAGGCGAGATCAGCGCCGGCGACGCCGCCGTGGTGATGACCAGCGCCCAGATTACAATGGGCATGCCCTACGCCGTGACCGACGCCGTGCTGGCACCACACATCGGCGGCGAGGCCGGCAGCAGCCACGCACCACCACCAGCACTGACCATCTTCCTGGACCGGCACCCAATCGCACACCTGCTGTGCTACCCGGCAGCACGCTACCTGATGGGCTCCATGACACCACAAGCCGTGCTGGCCTTCGTGGCCCTGATCCCACCAACACTGCCCGGCACCAACATCGTGCTGGGCGCCCTGCCCGAGGACCGCCACATCGACCGCCTGGCCAAGCGCCAGCGCCCCGGCGAGCGCCTGGACCTGGCCATGCTGGCCGCCATCCGCCGCGTGTACGGCCTGCTGGCCAACACCGTGCGCTACCTGCAGTGCGGCGGCAGCTGGCGCGAGGACTGGGGCCAGCTGAGCGGCACCGCCGTGCCACCACAGGGCGCCGAGCCACAGAGCAACGCCGGACCACGACCACACATCGGCGACACCCTGTTCACCCTGTTCCGGGCACCAGAGCTGCTGGCACCAAACGGCGACCTGTACAACGTGTTCGCCTGGGCCCTGGACGTGCTGGCCAAGCGCCTGCGCTCCATGCACGTGTTCATCCTGGACTACGACCAGTCACCGGCCGGCTGCCGCGACGCCCTGCTGCAGCTGACCAGCGGCATGGTGCAGACCCACGTGACAACACCCGGCAGCATCCCAACAATCTGCGACCTGGCCCGCACCTTCGCCCGCGAGATGGGCGAGGCCAACTAATAGGGATCCCTCGAGAAGCTTGTCA
For B1, in data set [1], the “GCV mediated cancer kill activity” value was “exhibited GCV mediated cancer cell kill activity”.

B2: SEQ ID NO: 18 (nucleic acid)
chain: GTCAGCGGCCGCACCGGTACGCGTCCACCATGGCCCTGCAGAAAAAGCTGGAAGAGCTGGAACTGGATGGCAGCTACCCCGGCCACCAGCACGCCAGCGCCTTCGACCAGGCCGCCCGCAGCCGCGGCCACAGCAACGGCAGCACCGCACTGCGGCCAGGATCTCAGCAGGAGGCCACCGAGGTGCGCCCCGAGCAGAAGATGCCCACCCTGCTGCGCGTGTACATCGACGGACCACACGGCATGGGCAAGACCACCACCACCCAGCTGCTGGTGGCCCTGGGCAGCCGCGACGACATCGTGTACGTGCCCGAGCCCATGACCTACTGGCGCGTGCTGGGCGCCAGCGAGACCATCGCCAACATCTACACCACCCAGCACCGCCTGGACCAAGGCGAGATCAGCGCCGGCGACGCCGCCGTGGTGATGACCAGCGCCCAGATTACAATGGGCATGCCCTACGCCGTGACCGACGCCGTGCTGGCACCACACATCGGCGGCGAGGCCGGCAGCAGCCACGCACCACCACCAGCACTGACCCTGATCTTCGACCGGCACCCAATCGCACACCTGCTGTGCTACCCGGCAGCACGCTACCTGATGGGCTCCATGACACCACAAGCCGTGCTGGCCTTCGTGGCCCTGATCCCACCAACACTGCCCGGCACCAACATCGTGCTGGGCGCCCTGCCCGAGGACCGCCACATCGACCGCCTGGCCAAGCGCCAGCGCCCCGGCGAGCGCCTGGACCTGGCCATGCTGGCCGCCATCCGCCGCGTGTACGGCCTGCTGGCCAACACCGTGCGCTACCTGCAGTGCGGCGGCAGCTGGCGCGAGGACTGGGGCCAGCTGAGCGGCACCGCCGTGCCACCACAGGGCGCCGAGCCACAGAGCAACGCCGGACCACGACCACACATCGGCGACACCCTGTTCACCCTGTTCCGGGCACCAGAGCTGCTGGCACCAAACGGCGACCTGTACAACGTGTTCGCCTGGGCCCTGGACGTGCTGGCCAAGCGCCTGCGCTCCATGCACGTGTTCATCCTGGACTACGACCAGTCACCGGCCGGCTGCCGCGACGCCCTGCTGCAGCTGACCAGCGGCATGGTGCAGACCCACGTGACAACACCCGGCAGCATCCCAACAATCTGCGACCTGGCCCGCACCTTCGCCCGCGAGATGGGCGAGGCCAACTAATAGGGATCCCTCGAGAAGCTTGTCA
On to B2, for which the “cell kill in mixed populations (bystander effect)” value in data set [2] and in data set [3] was “significant increases in the mixed populations over what would be considered theoretical” in each case. Further, in data set [1], the “GCV mediated cancer kill activity” value was “exhibited pro-drug GCV enzyme activity and selectivity for their ability to kill cancer cells”.

The values above are taken from patent US10610603B2, “Thymidine kinase gene” (GenVivo, Inc., priority 2013, dated 2020).
